Experimental data as given in patent publication US20110190477A1 (G2 INFLAMMATION, published 2011).
Where a chain is given by its changes, count along the chain named. Where “and” joins values, the source holds several entries; their conditions need not be identical. Equal values may be shown once.

Key:
human C5a receptor [1] = biological target: T1, human C5a receptor (human, UniProt P21730 1-350); experiment: 125I-C5a displacement by cold C5a, human neutrophils
T1 construct: On human neutrophils, L1.2/hC5aR transfectants or neutrophils of hC5aR knock-in mice; also called hC5aR; C5aR1
T1 chain: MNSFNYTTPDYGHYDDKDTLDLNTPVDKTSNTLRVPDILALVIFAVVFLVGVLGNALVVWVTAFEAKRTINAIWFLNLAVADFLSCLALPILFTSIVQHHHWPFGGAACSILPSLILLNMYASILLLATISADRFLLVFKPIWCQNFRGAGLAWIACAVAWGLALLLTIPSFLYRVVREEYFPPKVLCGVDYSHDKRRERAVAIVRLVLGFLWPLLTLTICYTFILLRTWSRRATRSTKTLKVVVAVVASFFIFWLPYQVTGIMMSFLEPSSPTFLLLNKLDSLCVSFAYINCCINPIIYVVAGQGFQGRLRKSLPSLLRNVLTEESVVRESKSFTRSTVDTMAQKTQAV

human C5a receptor [2] = biological target: T1, human C5a receptor; experiment: 125I-C5a displacement, human neutrophils
Protocol: (§1) The ability of humanized Abs to inhibit ¹²⁵I-labelled C5a binding to L1.2 cells transfected with hC5aR gene or human neutrophils was tested as described below. Recombinant human C5a was obtained from Sigma Chemical Co. (St. Louis, Mo.). ¹²⁵I-Bolton-Hunter-labelled complement C5a was purchased from NEN-Dupont (Boston, Mass.), with a specific activity of 2200 Ci/mM. Briefly, L1.2/hC5aR stable transfectants were grown for several days prior to an experiment then treated overnight with 5 mM butyric acid to stimulate hC5aR expression prior to the binding assay. Human neutrophils were purified from venous blood collected from healthy volunteers. Neutrophils were separated from other leukocytes by percoll density centrifugation followed by a red blood cell lysis step. Both cell types were washed once in PBS and resuspended in binding buffer (50 mM Hepes, pH 7.5, 1 mM CaCl₂, 5 mM MgCl₂, 0.5% BSA) at a concentration of 1×10⁷/ml. Aliquots of 40 μl (4×10⁵ cells) were dispensed into 96 well microtitre plates, followed by the addition of cold competitor (antibody or human C5a). Cells and cold competitor were incubated for 15 min at room temperature before-radiolabelled C5a was added to a final concentration of 0.4 nM. The final reaction volume was 120 μl. After 60 min incubation at room temperature, the cells were washed three times with 150 μl of binding buffer containing 0.15 M NaCl. Cell pellets were then counted on a TopCount Scintillation Counter (Packard). Samples were assayed in triplicate at each of 6-8 concentrations. Each antibody was tested in at least 3 separate assays. The number of counts in each sample was expressed as a percentage of the maximum ¹²⁵I-C5a binding observed in wells with no added cold competitor after subtraction of background.
(§2) Results of this analysis (the displacement curves) for each of the humanized antibodies compared to the mouse antibody 7F3 in human neutrophils and L1.2/hC5aR transfectants are given in FIGS. 11 and 12 respectively. […] These values were obtained using Graphpad Prism software fitting the data to the non-linear equation for one site competition.

human C5a receptor [3] = biological target: T1, human C5a receptor; experiment: cell-based or functional assay
human C5a receptor [4] = biological target: T1, human C5a receptor; experiment: 125I-C5a displacement, L1.2/hC5aR transfectants
Protocol: as §1, §2

human C5a receptor [5] = biological target: T1, human C5a receptor; experiment: cell-based or functional assay
human C5a receptor [6] = biological target: T1, human C5a receptor; experiment: saturation binding to human neutrophils at 4 C, flow cytometry
Protocol: Human neutrophils, isolated as described above, were resuspended in dPBS and 1×10⁵ cells (in 25 μl) were dispensed into wells of a 96-well plate. An equal volume (25 μl) of 2× antibody (diluted in PBS) was added to each well. The final antibody concentration using 2-fold serial dilution ranged from 40 to 0 ug/ml (using unlabelled hAb-Q, hAb-J and 7F3). Cells and antibody were incubated for 20 min times at 4° C. After incubation, 100 μl PBS+1% BCS was added to each well and the plate centrifuged at 2,000 rpm for 3 min. […] The cells were washed once as above and resuspended in PBS+1% FCS for analysis by flow cytometry. FSC v SSC scatter was used to identify neutrophils, with the Median Fluorescence Intensity (MFI) determined for each sample. EC50 values were determined by fitting data (MFI—background vs log₁₀[antibody concentration]) to the sigmoidal dose-response (variable slope) i.e. 4-parameter logistic equation using GraphPad Prism (v4.0) software. Bₘₐₓ and KD were determined by fitting data to the one-site binding hyperbola equation.

B1: human C5a (ligand, UniProt P01031 678-751, looked up)
chain: TLQKKIEEIAAKYKHSVVKKCCYDGACVNNDETCEQRAARISLGPRCIKAFTECCVVASQLRANISHKDMQLGR
modifications: tracer form: 125I-Bolton-Hunter label
notes: C5a is a fragment of it; also called hC5a; recombinant human C5a
EC50 (human C5a receptor [1]): 0.5 nM

B2: humanized anti-C5aR antibody hAb-S (antibody, human IgG4 S228P, kappa)
light: DVVMTQSPLSLPVTLGEPASISCRSSQSLVHSNGNTYLHWYLQKPGQSPQLLIYKVSNRFSGVPDRFSGSGSGTDFTLKISRVEAEDVGVYFCSQSTLVPLTFGQGTKLEIKRTVAAPSVFIFPPSDEQLKSGTASVVCLLNNFYPREAKVQWKVDNALQSGNSQESVTEQDSKDSTYSLSSTLTLSKADYEKHKVYACEVTHQGLSSPVTKSFNRGEC
heavy: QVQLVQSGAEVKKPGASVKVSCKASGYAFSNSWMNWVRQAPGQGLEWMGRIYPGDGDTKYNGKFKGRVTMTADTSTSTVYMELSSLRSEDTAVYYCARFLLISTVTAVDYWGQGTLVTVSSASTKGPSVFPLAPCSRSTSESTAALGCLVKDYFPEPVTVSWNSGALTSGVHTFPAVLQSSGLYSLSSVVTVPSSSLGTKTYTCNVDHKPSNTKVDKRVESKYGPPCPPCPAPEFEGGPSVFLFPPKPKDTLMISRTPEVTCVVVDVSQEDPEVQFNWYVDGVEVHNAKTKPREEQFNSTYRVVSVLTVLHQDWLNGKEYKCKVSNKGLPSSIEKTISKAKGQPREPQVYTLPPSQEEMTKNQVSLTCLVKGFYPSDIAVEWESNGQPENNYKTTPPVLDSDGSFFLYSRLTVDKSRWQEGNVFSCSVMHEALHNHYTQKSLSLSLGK
notes: also called antibody S
EC50 (human C5a receptor [2]): 2.69 nM

B3: humanized anti-C5aR antibody hAb-G (antibody, human IgG4 S228P, kappa)
light: DVVMTQSPLSLPVTLGEPASISCRSSQSLVHSNGNTYLHWYLQKPGQSPQLLIYKVSNRFSGVPDRFSGSGSGTDFTLKISRVEAEDVGVYFCSQSTLVPLTFGQGTKLEIKTVAAPSVFIFPPSDEQLKSGTASVVCLLNNFYPREAKVQWKVDNALQSGNSQESVTEQDSKDSTYSLSSTLTLSKADYEKHKVYACEVTHQGLSSPVTKSFNRGEC
heavy: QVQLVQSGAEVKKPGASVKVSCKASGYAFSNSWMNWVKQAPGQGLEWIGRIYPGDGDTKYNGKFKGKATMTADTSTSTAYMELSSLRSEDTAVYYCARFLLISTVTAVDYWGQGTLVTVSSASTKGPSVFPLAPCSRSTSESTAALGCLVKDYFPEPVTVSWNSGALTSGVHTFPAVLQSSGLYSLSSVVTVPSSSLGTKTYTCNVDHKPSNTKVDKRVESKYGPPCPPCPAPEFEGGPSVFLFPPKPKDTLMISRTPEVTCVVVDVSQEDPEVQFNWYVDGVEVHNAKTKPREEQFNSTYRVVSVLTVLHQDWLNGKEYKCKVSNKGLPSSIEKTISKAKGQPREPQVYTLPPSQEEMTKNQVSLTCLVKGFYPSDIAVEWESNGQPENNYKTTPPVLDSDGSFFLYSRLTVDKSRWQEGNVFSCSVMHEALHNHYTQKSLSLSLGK
notes: also called antibody G
blocking of human neutrophil migration towards C5a at 5 µg/ml antibody (human C5a receptor [3]): 84% | EC50 (human C5a receptor [4]): 1.53 nM | Ab conc. effective at blocking C5a-induced Ca2+-flux (human neutrophils, 1 nM C5a) (human C5a receptor [5]): 30 µg/mL | EC50 (human C5a receptor [2]): 3.52 nM

B4: humanized anti-C5aR antibody hAb-N (antibody, human IgG1, kappa)
light: B3 light
heavy: not shown
notes: IgG1; also called antibody N
EC50 (human C5a receptor [4]): 1.03 nM | Ab conc. tested but not effective at blocking Ca2+-flux (human neutrophils, 1 nM C5a) (human C5a receptor [5]): 0.01 µg/mL | EC50 (human C5a receptor [2]): 0.65 nM | EC50 (human C5a receptor [6]): 20 nM to 25 nM (2×) and ~3 µg/mL | Kd (human C5a receptor [6]): 20 nM to 25 nM (2×) and ~3 µg/mL

B5: humanized anti-C5aR antibody hAb-O (antibody, human IgG1, kappa)
light: B3 light with E17Q, Y41F, L42Q, K44R, Q50R, F92Y, Q105G
heavy: not shown
notes: IgG1; also called antibody O
EC50 (human C5a receptor [4]): 0.68 nM | Ab conc. effective at blocking C5a-induced Ca2+-flux (human neutrophils, 1 nM C5a) (human C5a receptor [5]): 10 µg/mL | EC50 (human C5a receptor [2]): 0.48 nM

B6: humanized anti-C5aR antibody hAb-A (antibody, human IgG4, kappa, V domains shown)
VH: QVQLVQSGAEVKKPGASVKISCKASGYAFSNSWMNWVRQAPGKGLEWMGRIYPGDGDTKYNGKFKGRVTITADESTSTAYMELSSLRSEDSAVYFCARFLLISTVTAVDYWGQGTTVTVSS
VL: DVVMTQSPLSLPVTLGEPASISCRSSQSLVHSNGNTYLHWYLQKPGQSPQLLIYKVSNRFSGVPDRFSGSGSGTDFTLKISRVEAEDVGVYFCSQSTLVPLTFGQGTKLEIKT
notes: also called antibody A
EC50 (human C5a receptor [4]): 2.78 nM

B7: humanized anti-C5aR antibody hAb-K (antibody, human IgG4 S228P, kappa, V domains shown)
VH: B6 VH with I20V, K43Q, I70M, E74T, A79V, S91T, F95Y, T116L
VL: B6 VL with S7T, E17Q, Y41C, F92Y
blocking of human neutrophil migration towards C5a at 5 µg/ml antibody (human C5a receptor [3]): 55%

B8: humanized anti-C5aR antibody hAb-C (antibody, human IgG4, kappa)
light: B3 light with E17Q, Y41F, L42Q, K44R, Q50R, F92Y, Q105G
heavy: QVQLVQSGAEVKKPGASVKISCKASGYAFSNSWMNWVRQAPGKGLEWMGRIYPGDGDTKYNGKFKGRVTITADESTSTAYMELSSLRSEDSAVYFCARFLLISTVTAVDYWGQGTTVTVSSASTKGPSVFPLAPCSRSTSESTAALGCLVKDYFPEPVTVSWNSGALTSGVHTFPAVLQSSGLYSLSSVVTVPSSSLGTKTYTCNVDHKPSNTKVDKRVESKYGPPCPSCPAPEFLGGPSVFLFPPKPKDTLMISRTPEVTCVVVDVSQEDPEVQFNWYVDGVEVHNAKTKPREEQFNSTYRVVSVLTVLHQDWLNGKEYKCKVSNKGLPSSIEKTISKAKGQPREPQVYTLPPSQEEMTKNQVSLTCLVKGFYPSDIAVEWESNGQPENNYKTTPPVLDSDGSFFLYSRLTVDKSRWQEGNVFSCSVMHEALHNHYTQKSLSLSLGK
notes: also called antibody C
blocking of human neutrophil migration towards C5a at 5 µg/ml antibody (human C5a receptor [3]): 75% | EC50 (human C5a receptor [4]): 0.9 nM | EC50 (human C5a receptor [2]): 2.48 nM

B9: humanized anti-C5aR antibody hAb-M (antibody, human IgG4, kappa)
light: B3 light
heavy: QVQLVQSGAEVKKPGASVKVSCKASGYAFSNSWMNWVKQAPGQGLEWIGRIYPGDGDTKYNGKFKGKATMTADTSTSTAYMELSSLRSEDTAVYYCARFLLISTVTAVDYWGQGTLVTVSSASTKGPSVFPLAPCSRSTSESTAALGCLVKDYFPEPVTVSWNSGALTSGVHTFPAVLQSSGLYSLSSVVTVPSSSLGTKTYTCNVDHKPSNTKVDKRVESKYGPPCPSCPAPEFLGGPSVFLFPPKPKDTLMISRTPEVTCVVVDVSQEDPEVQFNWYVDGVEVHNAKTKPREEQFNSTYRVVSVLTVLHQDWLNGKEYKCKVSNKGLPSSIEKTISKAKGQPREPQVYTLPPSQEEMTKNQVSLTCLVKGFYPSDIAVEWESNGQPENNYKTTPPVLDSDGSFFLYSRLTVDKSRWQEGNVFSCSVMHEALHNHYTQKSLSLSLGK
notes: also called antibody M
EC50 (human C5a receptor [4]): 0.95 nM | Ab conc. effective at blocking C5a-induced Ca2+-flux (human neutrophils, 1 nM C5a) (human C5a receptor [5]): 30 µg/mL | EC50 (human C5a receptor [2]): 4.05 nM

B10: humanized anti-C5aR antibody hAb-F (antibody, human IgG4 S228P, kappa)
light: B3 light with E17Q, Y41F, L42Q, K44R, Q50R, F92Y, Q105G
heavy: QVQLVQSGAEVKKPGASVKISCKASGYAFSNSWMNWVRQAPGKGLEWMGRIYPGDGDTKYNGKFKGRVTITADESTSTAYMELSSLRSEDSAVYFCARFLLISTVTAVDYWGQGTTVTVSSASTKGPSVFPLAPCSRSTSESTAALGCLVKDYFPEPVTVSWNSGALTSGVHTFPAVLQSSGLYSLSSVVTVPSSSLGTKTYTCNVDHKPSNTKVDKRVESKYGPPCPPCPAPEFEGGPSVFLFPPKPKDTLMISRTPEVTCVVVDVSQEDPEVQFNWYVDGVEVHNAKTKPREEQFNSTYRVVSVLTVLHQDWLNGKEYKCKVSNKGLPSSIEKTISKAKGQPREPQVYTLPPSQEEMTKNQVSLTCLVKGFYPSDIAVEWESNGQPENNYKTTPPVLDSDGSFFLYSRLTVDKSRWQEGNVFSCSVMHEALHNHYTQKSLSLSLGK
notes: also called antibody F
EC50 (human C5a receptor [4]): 1.26 nM | Ab conc. tested but not effective at blocking Ca2+-flux (human neutrophils, 1 nM C5a) (human C5a receptor [5]): 10 µg/mL | EC50 (human C5a receptor [2]): 2.55 nM
